Consider eleven molecules from patent publication US20190262327A1 (AstraZeneca / MedImmune, published 2019).

The chains are these.
B8: Abet0380-GL (germlined) IgG1-TM (antibody, V domains shown)
VH: EVQLLESGGGLVQPGGSLRLSCAASMGNFNYQTMWWVRQAPGKGLEWVSVIGKTNENIAYADSVKGRFTISRDNSKNTLYLQMNSLRAEDTAVYYCAREWMDHSRPYYYYGMDVWGQGTLVTVSS
VL: SYELTQPPSVSVSPGQTASITCSGHNLEDKFASWYQQKPGQSPVLVIYRDDKRPSGIPERFSASNSGHTATLTISGTQAMDEADYYCSSQDTVTRVFGGGTKLTVL
notes: also called Abet0380-GL IgG1-TM; Abet0380-GL IgG1TM

Assay [1] deals with B8. Put plainly: HTRF competition: unlabelled peptide titrated against the binding of N-terminal biotin Abeta 1-42 (1.5 nM) to Abet0380-GL IgG1-TM (0.5 nM). On the procedure:
The assay was then incubated for a further 2 hrs at room temperature before reading on an Envision plate reader (PerkinElmer) using a standard homogeneous time resolved fluorescence (HTRF) read protocol.
The final assay volume was 20 μl and all reagents were prepared in an assay buffer comprising MOPS pH7.4 (50 mM), potassium fluoride (0.4M), tween 20 (0.1%) & fatty acid free BSA (0.1%). The assay was performed in low volume 384 well black assay plates (Costar 3676).
On the technique in general: In TR-FRET formats the signal depends on donor and acceptor labels being close together.

Assay [2] has as its target T1, biotinylated synthetic human Amyloid beta 1-42 peptide (human, UniProt P05067 672-713, biotinylated (N-terminal biotin in Example 4)).
T1 construct: domain: Amyloid beta 1-42 peptide; Numbers 1-42 count on the Amyloid beta peptide, not on APP; also called biotinylated human Amyloid beta 1-42; N-terminal biotin Abeta 1-42
Description: HTRF epitope competition: purified scFv titrated against the complex of biotinylated human Amyloid beta 1-42 and Abet0144-GL IgG1-TM [upper graph; the letter C stands below it]. The text has this:
(§1) Two thousand and twenty four scFv chosen at random from selection rounds 3 and 4 of the targeted mutagenesis approach described in section 1.2 were expressed in bacteria to produce unpurified periplasmic scFv.
(§2) One thousand six hundred and seventy two scFv, randomly selected from selection rounds 9 to 11, were screened in an epitope competition assay as described in section 1.3.

Assay [3] addresses T1, biotinylated synthetic human Amyloid …. Put plainly: HTRF epitope competition; purified scFv titrated; competitor Abet0144-GL IgG1-TM. The procedure: as §1, §2
(§3) Where the assay was performed more than once, the absolute range of IC₅₀ values is provided.
Target sequence in this assay (P05067 672-713 limits assumed): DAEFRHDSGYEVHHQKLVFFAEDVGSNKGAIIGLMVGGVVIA

For assay [4] the target is unchanged. Description: SPR (ProteOn); biotinylated peptide on streptavidin chip, scFv in solution; 1:1 Langmuir fit. On the procedure: (§4) These experiments were performed essentially as described by Karlsson et al. (Karlsson et al., 1991).
(§5) The chip surface was regenerated between cycles by a single 60 second injection of 10 mM Glycine pH 2.0 to remove scFv bound to the peptide.
(§6) Each scFv at 100-200 nM was sequentially passed over the peptide surface for a sufficient amount of time to observe sensorgrams that could be fitted to an appropriate binding model with confidence. An irrelevant scFv blank was subtracted from the main dataset to reduce the impact of any buffer artefacts or non-specific binding effects. An appropriate binding model was then fitted to the data.

Assay [5] shares this target. Put plainly: Surface Plasmon Resonance, purified scFv (group statement that sums up Table 5).
For assay [6] the target is unchanged. Description: HTRF epitope competition; purified scFv titrated; competitor Abet0144-GL IgG1-TM; range of repeats. On the procedure: as §1, §2, §3
Target sequence in this assay (P05067 672-713 limits assumed): as above
Assay [7] shares this target. Put plainly: HTRF epitope competition: purified scFv titrated against the complex of biotinylated human Amyloid beta 1-42 and Abet0144-GL IgG1-TM.
From the text: as §1, §2

For assay [8] the target is unchanged. Description: SPR (ProteOn); biotinylated peptide on streptavidin chip, scFv in solution. On the procedure: as §4, §5, §6
Target sequence in this assay (P05067 672-713 limits assumed): as above
Assay [9] concerns the target T2, unlabelled murine Amyloid beta 1-42 peptide (murine, UniProt P12023 672-713).
T2 construct: domain: Amyloid beta 1-42 peptide
T2 peptide (looked up): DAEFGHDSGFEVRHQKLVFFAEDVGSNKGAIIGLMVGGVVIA
Put plainly: Surface plasmon resonance (BIAcore), antibody captured on protein G, single cycle with five peptide injections (64 to 1024 nM by paragraph 390). On the procedure:
as §4
(§7) The interaction between each test IgG and each peptide was estimated using assays in which the antibody was non-covalently captured by a protein G surface that was itself amine linked to a proprietary CM5 chip. […] The chip surface was regenerated between cycles by paired 40 second injections of 10 mM Glycine pH 2.0 to remove ligand and bound antibody. The test antibody was then reapplied for each peptide injection cycle.
(§8) Blank reference flow-cell data were subtracted from each IgG dataset and a zero-concentration antibody-only buffer blank was double-reference subtracted from the main dataset.
(In general: SPR reads the build-up and loss of mass on a sensor chip optically.)

Assay [10] concerns the target T3, biotinylated human Amyloid beta 1-40 peptide (human, UniProt P05067 672-711, biotinylated).
T3 construct: domain: Amyloid beta 1-40 peptide
Put plainly: Surface plasmon resonance (BIAcore), antibody captured on protein G, single cycle with five peptide injections. On the procedure:
as §4, §7, §8

Assay [11] has as its target T4, unlabelled murine Amyloid beta 1-40 peptide (murine, UniProt P12023 672-711).
T4 construct: domain: Amyloid beta 1-40 peptide
T4 peptide (looked up): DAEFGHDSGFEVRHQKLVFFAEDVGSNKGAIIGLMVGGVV
The assay is described as above. The procedure:
as §4, §7, §8

Assay [12] addresses T5, synthetic human Amyloid beta 1-42 peptide (human, UniProt P05067 672-713).
T5 construct: domain: Amyloid beta 1-42 peptide; also called Abeta 1-42
Description: SPR (BIAcore T-100); IgG captured on protein G, peptide 0.063-1024 nM in solution; 1:1 Langmuir fit. On the procedure: The chip surface was regenerated between cycles by paired 40 second injections of 10 mM Glycine pH 2.0 to remove ligand and bound antibody. The test antibody was then reapplied for each peptide injection.
Blank reference flow-cell data were subtracted from each IgG dataset and a zero-concentration antibody-only buffer blank was double-reference subtracted from the main dataset. An appropriate binding model was then fitted simultaneously to the data from each analyte titration using the BIAevaluation software.

For orientation: IC50 means the midpoint of a concentration-inhibition curve. Low values mean higher potency, high ones lower potency. Usually Kd stands for the constant that tells how readily two partners part at equilibrium. A high value points to weaker binding. By koff is commonly meant the first-order rate constant of dissociation. Higher therefore signals a short-lived complex. The term kon denotes the second-order rate constant of association.

As for LVFFAEDVGSNKGAIIGLMVGGVVIA (peptide, UniProt P05067 688-713, looked up, domain: Abeta 17-42) [human Abeta 17-42 peptide], the “IC50 (read off the curve)” value in assay [1] was about 5000 pM.

For DAEFRHDSGYEVHHQK (peptide, UniProt P05067 672-687, looked up, domain: Abeta 1-16) [human Abeta 1-16 peptide], the binding result in assay [1] was “no binding (tested: log -5 M (10 uM))”.

Consider VHHQKLVFFAEDVGSNK (peptide, UniProt P05067 683-699, looked up, domain: Abeta 12-28) [human Abeta 12-28 peptide], for which, in assay [1], the binding result is “no binding (tested: log -5 M (10 uM))”.

B1: Abet0380 scFv (scFv, V domains shown, not shown: small tags and cut ends)
VH: EVQLLESGGGLVQPGGSLRLSCAASMGNFNYQTMWWVRQAPGRGLEWVSVIGKTNENIAYADSVKGRFTISRDNSKNTLYLQMNSLRAEDTAVYYCAREWMDHSRPYYYYGMDVWGQGTLVTVSS
VL: SYELTQPPSVSVSPGQTASITCSGHNLEDKFASWYQQKPGQSPVLVIYRDDKRPSGIPERFSASNSGHTATLTISGTQATDEADYYCSSQDTVTRVFGGGTKLTVL
notes: Purified scFv expressed in E. coli
Take B1: in assay [2], the “IC50 (read off the curve)” value was about 500 pM. Moreover, the IC50 is 430 pM in assay [3] and 380 to 470 pM in [6]. In addition, the Kd in assay [4] was 148 pM; in assay [5], under 250 pM. Also, in [4], the koff was 2.85e-05 s⁻¹. The molecule also showed a kon in assay [4] of 193000 M⁻¹ s⁻¹.

B2: Abet0369 scFv (scFv, V domains shown, not shown: small tags and cut ends)
VH: EVQLLESGGGLVQPGGSLRLSCAASSFQISKNTMWWVRRAPGKGLEWVSVIGKDETRFNYADSVKGRFTISRDNSKNTLYLQMNSLRAEDTAVYYCAREWMDHSRPYYYYGMDVWGQGTLVTVSS
VL: SYGLTQPPSVSVSPGQTASITCSGRNIGDSWVAWYQQKPGQSPVLVIYRDDKRPSGIPERFSASNSGHTATLTISGTQATDEADYYCSSQDTVTRVFGGGTKLTVL
notes: as for B1
Turning to B2, in assay [7], the “IC50 (read off the curve)” value is about 400 pM. In assay [8], this molecule showed a dissociation constant Kd of 133 pM, a koff of 4.34e-05 s⁻¹ and a kon of 327000 M⁻¹ s⁻¹. The IC50 in assay [3] was found to be 360 pM. The IC50 in assay [6] was 300 to 410 pM.

B3: Abet0377 scFv (scFv, V domains shown, not shown: small tags and cut ends)
VH: EVQLLESGGGLVQPGGSLRLSCAASGFNFNEQTLWWVRQAPGKGLEWVSVIGVGTKNIAYADTVKGRFTISRDNSKNTLYLQMNSLRAEDTAVYYCAREWMDHSRPYYYYGMDVWGQGTLVTVSS
VL: SYELTQPPSVSVSPGQTASITCSGHNTEHKWISWYQQKPGQSPVLVIYRDDKRPSGIPERFSATNSGHTATLTISGTQATDEADYYCSSQDTVTRVFGGGTKLTVL
notes: as for B1
As for B3, in assay [7], the “IC50 (read off the curve)” value was about 300 pM. Also, in assay [8], the Kd is 154 pM, the off-rate (koff) came out at 3.02e-05 s⁻¹ and the kon is 196000 M⁻¹ s⁻¹. The IC50 in [3] was determined as 320 pM. Moreover, the IC50 in [6] is 290 to 350 pM.

B4: Abet0322b scFv (scFv, V domains shown, not shown: small tags and cut ends)
VH: EVQLLESGGGLVQPGGSLRLSCAASNEEFQYNPMWWVRQAPGKGLEWVSVIGSSGGATVYADAVKGRFTISRDNSENTLYLQMNSLRAEDTAVYYCAREWMDHSRPYYYYGMDVWGQGTLVTVSS
VL: SYELTQPPSVSVSPGQTASITCSGHNLGDKFASWYQQKPGQSPVLVIYRDDKRPSEIPERFSASNSGHTATLTISGTQATDEADYYCSSQDTVTRVFGGGTKLTVL
notes: as for B1
In [8], B4 gave a dissociation constant (Kd) of 812 pM, an off-rate (koff) of 0.000165 s⁻¹ and a kon of 203000 M⁻¹ s⁻¹. The IC50 in assay [3] came out at 710 pM. In assay [6], this molecule came in with an IC50 of 430 to 980 pM.

B5: Abet0323b scFv (scFv, V domains shown, not shown: small tags and cut ends)
VH: EVQLLESGGGLVQPGGSLRLSCAASTSTFQEDTMWWVRQAPGKGLEWVSVIGPNPKNNAYADSVKGRFTISRDNSKNTLYLQMNSLRAEDTAVYYCAREWMDHSRPYYYYGMDVWGQGTLVTVSS
VL: SYELTQPPSVSVSPGQTASITCSGHNLEDKFASWYQQKPGQSPVLVIYRDDKRPSGVPERFSASNSGHTATLTISGTQATDEADYYCSSQDTVTRVFGGGTKLIVL
notes: as for B1
With B5, in assay [8], the Kd came to 894 pM, the off-rate (koff) is 0.000188 s⁻¹ and the kon was found to be 210000 M⁻¹ s⁻¹. This molecule also showed an IC50 in assay [3] of 670 pM. The IC50 in [6] was 570 to 760 pM.

B6: Abet0144-GL scFv (scFv, V domains shown, not shown: small tags and cut ends)
VH: EVQLLESGGGLVQPGGSLRLSCAASGFTFSVYTMWWVRQAPGKGLEWVSVIGSSGGTTVYADSVKGRFTISRDNSKNTLYLQMNSLRAEDTAVYYCAREWMDHSRPYYYYGMDVWGQGTLVTVSS
VL: SYELTQPPSVSVSPGQTASITCSGHNLEDKFASWYQQKPGQSPVLVIYRDDKRPSGIPERFSASNSGHTATLTISGTQAMDEADYYCQAQDSTTRVFGGGTKLTVL
notes: Purified scFv expressed in E. coli; also called parent clone
As to B6, in assay [8], binding was put at a Kd of 58700 pM, the koff is 0.0066 s⁻¹ and the kon was 116000 M⁻¹ s⁻¹. The IC50 in [3] is 14000 pM. Moreover, the IC50 in assay [6] lay within 8100 to 18000 pM.

B7: Abet0321b scFv (scFv, V domains shown, not shown: small tags and cut ends)
VH: EVQLLESGGGLVQPGGSLRLSCAASAYHSNHDPMWWVRQAPGKGLEWVSVIGSSGGTTAYADSVKGRFTISRDNSKNTLYLQMNSLRAEDTAVYYCAREWMDHSRPYYYYGMDVWGQGTLVTVSS
VL: SYELTQPPSVSVSPGQTASITCSGHNLEDKFASWYQQKPGQSPVLIIYRDDKRPSGIPERFSASNSGHTATLTISGTQATDEADYYCSSQDTVTRVFGGGTKLTVL
notes: as for B1
Turning to B7, in assay [8], binding was put at a Kd of 222 pM, the koff worked out at 3.33e-05 s⁻¹ and the association rate constant (kon) was determined as 150000 M⁻¹ s⁻¹. In assay [3], this molecule displayed an IC50 of 730 pM. In [6], this molecule returned an IC50 of 690 to 760 pM.

Turning to B8, the binding result in assay [9] is “binds”. Besides, the binding result in assay [10] is reported as “no binding”. The binding result in assay [11] was “no binding”. In addition, in [12], binding was put at a Kd of 322 pM, the koff was determined as 0.000307 s⁻¹ and the kon was 952000 M⁻¹ s⁻¹.
